Test [1] deals with T1, human Nectin-4 expressed on cells (Nectin4-CHOK1, T47D, MDA-MB-468) (human, UniProt Q96NY8 32-510).
T1 sequence: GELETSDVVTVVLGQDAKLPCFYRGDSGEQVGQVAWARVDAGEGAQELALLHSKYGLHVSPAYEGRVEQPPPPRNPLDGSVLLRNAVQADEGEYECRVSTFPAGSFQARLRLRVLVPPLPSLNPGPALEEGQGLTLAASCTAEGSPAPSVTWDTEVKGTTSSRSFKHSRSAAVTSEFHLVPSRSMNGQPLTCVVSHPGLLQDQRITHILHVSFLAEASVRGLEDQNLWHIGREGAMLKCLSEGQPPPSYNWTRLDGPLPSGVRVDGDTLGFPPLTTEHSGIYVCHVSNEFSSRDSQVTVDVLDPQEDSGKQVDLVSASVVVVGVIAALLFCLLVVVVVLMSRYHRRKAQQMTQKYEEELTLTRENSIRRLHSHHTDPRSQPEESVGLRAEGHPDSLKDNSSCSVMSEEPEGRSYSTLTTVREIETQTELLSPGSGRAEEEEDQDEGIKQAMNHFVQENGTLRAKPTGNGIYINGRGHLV
Description: cell-based or functional assay.

The target in test [2] is T1, human Nectin-4 expressed on cells …. Kind of test: cell-based or functional assay. This is another data set of the same source.

B1: ADC-2 (EV201-9-A) (antibody, human IgG1, kappa, V domains shown)
VH: EVQLVESGGGLVQPGGSLRLSCAASGFTFSSYNMNWVRQAPGKGLEWVSYISSSSSTIYYADSVKGRFTISRDNAKNSLSLQMNSLRDEDTAVYYCARAYYYGMDVWGQGTTVTVSS
VL: DIQMTQSPSSVSASVGDRVTITCRASQGISGWLAWYQQKPGKAPKFLIYAASTLQSGVPSRFSGSGSGTDFTLTISSLQPEDFATYYCQQANSFPPTFGGGTKVEIKR
modifications: compound 9-A (exatecan analog linker-drug) coupled to cysteine sulfhydryls after TCEP reduction; average loading n=3.90 for the whole antibody; positions not given
With B1, in test [1], the “IC50(nM), killing of MDA-MB-468 (++) cells, CTG, 6 days” value came to 152 nM and the “IC50(nM), killing of T47D (+++) cells, CTG, 6 days” value is 193 nM.

B2: positive control antibody EV201 (antibody, human IgG1, kappa, V domains shown)
VH: B1 VH
VL: B1 VL
As for B2, the “IC50 (nM), DT3C antibody endocytosis assay on Nectin4-CHOK1 cells” value in test [2] was determined as 0.5 nM.

B3: ADC-1 (NEC49-9-A) (antibody, V domains shown)
VH: EVQLLESGGGLVQPGGSLRLSCAASGFTFSSYAMSWVRQAPGKGLEWVSAIYSGGSTYYADSVKGRFTISRDNSKNTLYLQMNSLRAEDTAVYYCTRHGGDSGSWSYYYYGMDVWGQGTTVTVSS
VL: not shown
modifications: compound 9-A (exatecan analog linker-drug) coupled to cysteine sulfhydryls after TCEP reduction; average loading n=4.90 for the whole antibody; positions not given
For B3, in test [1], the “IC50(nM), killing of MDA-MB-468 (++) cells, CTG, 6 days” value came to 87.5 nM and the “IC50(nM), killing of T47D (+++) cells, CTG, 6 days” value was determined as 111 nM.

B4: fully human antibody molecule NEC49 (antibody, V domains shown)
VH: B3 VH
VL: not shown
For B4, the “IC50 (nM), DT3C antibody endocytosis assay on Nectin4-CHOK1 cells” value in test [2] is 0.43 nM.

The values are drawn from patent publication US20240269307A1 (JIANGSU HENGRUI PHARMACEUTICALS, published 2024).
